Our source for the % inhibition of binding values is patent US20260209316A1.

The target in assay [1] is mucin domain-deleted Zaire GP (GPdMuc) (Ebola (Zaire) virus (EBOV)) (UniProt Q05320). The assay can be described thus: BLI competition on Zaire GPdMuc (upper table); competitor 15H10.
The target is the same in assay [2]. Put plainly: BLI competition on Zaire GPdMuc (upper table); competitor 316L.
For assay [3] the target is unchanged. Put plainly: BLI competition on Zaire GPdMuc (upper table); competitor KZ52 (self).
Assay [4] shares this target. The assay can be described thus: BLI competition on Zaire GPdMuc (upper table); competitor 380L.
Assay [5] shares this target. The assay can be described thus: BLI competition on Zaire GPdMuc (upper table); competitor 13C6.
For assay [6] the target is unchanged. Put plainly: BLI competition on Zaire GPdMuc (upper table); competitor mAb114.
Assay [7] addresses mucin domain-deleted Sudan GP (GPdMuc) (Sudan virus (SUDV)) (UniProt Q7T9D9). The assay can be described thus: BLI competition on Sudan GPdMuc; competitor mAb166.
Assay [8] has the same target. The assay can be described thus: BLI competition on Sudan GPdMuc (column in both tables); competitor 15H10.
For assay [9] the target is unchanged. Put plainly: BLI competition on Sudan GPdMuc; competitor 316L.
For assay [10] the target is unchanged. Put plainly: BLI competition on Sudan GPdMuc (column in both tables); competitor 16F6.
Assay [11] shares this target. Put plainly: BLI competition on Sudan GPdMuc (column in both tables); competitor 316L.
Assay [12] shares this target. Put plainly: BLI competition on Sudan GPdMuc; competitor 16F6.
For assay [13] the target is unchanged. Put plainly: BLI competition on Sudan GPdMuc; competitor 15H10.
For assay [14] the target is unchanged. The assay can be described thus: BLI competition on Sudan GPdMuc (column in both tables); competitor mAb166.

Turning to KZ52 (antibody), the % inhibition of binding is -1% in assay [1]; 8% in [2]; 96% in [3]; 10% in assay [4]; 13% in assay [5]; 9% in [6].
Consider HIV-specific antibody VRC01, for which the % inhibition of binding in assay [7] is -43.1%; in [8], -333%; in [9] it was 29.9%; in [10], -7.53%; in [11], 20.6%; in [12], 31%. The % inhibition of binding was -296% in assay [13] and -82.7% in assay [14].
